Experimental data reported in the DeepSol protein solubility set.

Assay: soluble on expression in E. coli; label from the status in PepcDB or PDB records

| Sequence | soluble on expression in E. coli |
| --- | --- |
| MGEAVEVMFGNGFPEIHKATSPTQTLHSNQQDCHWYEETIDDDLKWSFALNSVLHQGTSEYQDIALLDTKRFGKVLVIDGKMQSAERDEFIYHECLIHPALLFHPNSPKTVFIMGGGEGSAAREILKHTTIEKVVMCDIDQEVVDFCRRFLTVNSDAFCNKKLELVIKDAKAELEKREEKFDIIVGDLADPVEGGPCYQLYTKSFYQNILKPKLSPNGIFVTQAGPAGIFTHKEVFTSIYNTMKQVFKYVKAYTAHVPSFADTWGWVMASDHEFDVEVDEMDRRIEERVNGELMYLNAPSFVSAATLNKTISLALEKETEVYSEENARFIHGHGVAYRHI | soluble |
| MSLCIIGSGPGGLCMARALKRQGLDYEQFERHGEVGGVWDINNPGTPMYQSAHFISSRDQSGFIDYPMPAHFPDYPSNRQIFEYVRSFAVAFDLYDRIRFNTAVKDVEKEQDGRWLVTLASGERRRYRAVVCATGCNWDPNMPEVKGQFEGTVRHSVTYKNPDEFKGKRVMVIGADNSGADIACDAAKHADKAFISMRRGYHLIPKHLFGMPVDEFGEKGPQLPMWLARPVFQTILRVINGDTRRFGLPRPDHKLFESHPLLNTQLLHYLQHGDIQVKPDVSHYEGQHVVFKDGTREPLDLVLYATGYKWSCPYAAKYFEWQGGRPRLYLSIFSREHHNLFGIGYVETNSSAYKLFDSEAHAVACYLRDQLHQKTQASHFDQLIATDDPDLSGGIKFVKSQRHEVYLEAHALKKYLRKLFHSEGHHHHHH | not soluble |
| QYFTGGLSLEPSNQAGFSQSQSASNTAAQDENAQFVAAILGTTETVWNQLLQGQYVEPKLVLYRNMTSTGCGMGQAQSGPFYCPADGKVYIDLSFLEELKKLGASGDFAFAYVIAHEVGHHVQNLLGTSTKVRQAQQAAGKAQANQLSVALELQADCYAGVWGHYVDRQLNLLEPGDVEEGIAAASAVGDDRLQKMAGRAVQPEAFTHGSSADRVKWFNIGFASGKPASCNTF | not soluble |
| MQDQVIICDLDNTIFDTSSIDPELFASLLHKATEYLSGSFTAEIILSIIQDIVSNPFDRVCEKYGLPKSMILPVLDELNGISLEHSAMVPYEDYAAFRAIPAYKILVTTGFKRLQEEKLRKLQIRQDFDRIIINDPVYANSSKLDIFRELSRELDLKDRKTYVVGDDPASEIKAGRELGFTTVLMVRKEYLSNSYTDYIISSFEGLRDLLRDNMENDYALRK | soluble |
| MAHHHHHHMGIYSDTDDDSPIGIEVVGEASSDSEEPNPHSTTKRKVSGAVDHNNGYNQKKNKRRRLKNKWEENPQLHETPDEEQISNVKKRVYVLDTCSIVEHIEWSILEEVAKYYLIIIPKKVMDELGKMEGGRGSTCNRVLNKLENEHTSNKMNVGFRLQRKNDKDKNVLSAARVNDDHILSCACSFRNEHDVVLVTSDNILKLKAYAEGIPTVSTLKDVTRLTNGLRGGKFE | not soluble |
| MTVSLLDSSTRYHAVTALNGNVLFSGARRPMPTVMLLHTPPPEFIRSQIQQMVVDYVTDISMVAIAPGNPLYNLYQYGVGYEVHLYLNAMNGSQSLTVELIVALDDEDPETVLGFLLYLPVQDDPQACAVAYMAVLESHRCQGIARLMLDRMVSRYAHAELYCTVAKVPYFQAMGFQVLGARGPQVIMNTRDHGTDGLLAVMDIAPIYSSVEVRQIHAYLLKQHGNTAMLDAEKQRDHHLDRMTREARAFAEQHLENGDSVHGVSATVRLH | not soluble |
| MEAHNVEISTRLTPEMKNQGTIELLYKALQQGDTSTVTKVVASDVEWWFHGPHDCQHMMRLLTGEPPRQVSFRFEPSSVQVVVPGHDCVIAEGWEGSRVYWVHVWKLKDGVVTELREYFNTWLTVTDYSLGAVGWDMGRCTVWESVPRDLARGSLPSLLLAI | soluble |
| MGSDKIHHHHHHMERTSDYWFMIEPYVHINIANGYMLLYNTLDKETIISNNEKVINLLEELLQDENCGVTILKNEQYRQNDIHSFITNLREKYMGDIIDISLSKGKPIQILPHTNFCNKRNEKYNFIKNANLLHFLNEIIIHLDHILDQDKLIDYLQSMPDNITYSISGDLKHIAKFDKLVDFLNQYNSSKKIICNYINFAIPASVCKNIFLYKIHIHFPIDIKQLIITTQSLKDQNNLFELIFDIASLDDYLKAWEIIEEYQIDKYQFNPIYTGYNIDFFKENVFLKKSDILSTSMSIKDFFIKQMINNNDFGKINIMPNGDVHSNINYPALGNICTHSIFELIQKEIEEGKSWLRVRNQEPCNACIYQWLCPSPSDYEIMIGQTNLCHVNIHNPNCENL | not soluble |
| MHHHHHHGHNSNLQDILAANAKWASQMNNIQPTLFPDHNAKGQSPHTLFIGCSDSRYNENCLGVLPGEVFTWKNVANICHSEDLTLKATLEFAIICLKVNKVIICGHTDCGGIKTCLTNQREALPKVNCSHLYKYLDDIDTMYHEESQNLIHLKTQREKSHYLSHCNVKRQFNRIIENPTVQTAVQNGELQVYGLLYNVEDGLLQTVSTYTKVTPK | soluble |
| MGSSHHHHHHSSGRENLYFQGHMIMIFTSSCCDNLSIDEIIERAEKGDCEAQYIVGFYYNRDSAIDSPDDEKAFYWLKLAAEQGHCEAQYSLGQKYTEDKSRHKDNEQAIFWLKKAALQGHTFASNALGWTLDRGEAPNYKEAVVWYQIAAESGMSYAQNNLGWMYRNGNGVAKDYALAFFWYKQAALQGHSDAQNNLADLYEDGKGVAQNKTLAAFWYLKSAQQGNRHAQFQIAWDYNAGEGVDQDYKQAMYWYLKAAAQGSVGAYVNIGYMYKHGQGVEKDYQAAFEWFTKAAECNDATAWYNLAIMYHYGEGRPVDLRQALDLYRKVQSSGTRDVSQEIRETEDLL | soluble |
| MPSIYITGVDPTIVKIHEIQGTGTASPLVNNVVTIEAIVVGDFQDGDGDISRNLRGFYVQEEDADVDGNVATSEGIFIFENGNFITDVNVGDKVQITGTVDEFFGETQIDTITNITVISSGNTLPTAANITLPTAGTTESQGGTPQPDLEAFEGMLVKFTDTLTITEMFNLDRFNEIKLSQGGRPQQFTQFNDANVAGYGAYREEIGARTITYDDGLSVQNAEISNLDGFGSSFSTASDIRMGDTINNLTGVLSYQWAGNASSGATWRVRSAVDGTNQFTKVNDRPVTPENVGGSLKVTGFNVLNYFKTIDLEHHHHHH | not soluble |
| MGSDKIHHHHHHMKRLSLLERSRLPTNDLGNARRLFEAANGRLLWLADGAGGKGCWIAFDGIRWSADEGPMRALAFAQKAAVEICDEAHALRECTADELAEVYGRKFSKEMAEERAGQLWTWSIKSGDSAKTTAMQNQFKGLRDGDEGPFVTQVWQRDFDAQPMAYHCSNGTLRFVQDDAGTWSHVFEKGHRPDDRFMQVANVAYDAAAKAKAWIERMEVMHHDPVQRTALQRIYGMTLTALISDQAFYIFQGKGQDGKSVTNDVVCQLHGMYARKADPKTFLEGPTQQSSGPQSDIVRLAGDVRLVVMDEPKKNSTWDGQKIKQATGSEMIARGVHATTELSFTPHWQLIAECNGLPKAPSDDRGFRRRFKLYPWVVQFGVTPGVADEPVHLVKARLIGEGSGVLNWMIKGCVEWLNERVVPEPEAAKRATASFWSASSAMGEWIASHCDLSDPEAREEATPLYKAFRQFCIDRGDDETKIITQTTFGRQLNDAQIYRVPNNSTGKVERVGIRLKRVDELGGGALSTSGRDTFDDDVARFDADNRDPFGAP | not soluble |
| MSLKLDSKGPVLFKQKRVGINKTHFHILKFRTMRIDTPKDTPTHLLKNPDQYITKMGKFLRKTSLDELPQIWNIFVGHMSIIGPRPALWNQYDLIVERDKYGANDVPPGLTGWAQINGRDELPIEVKAKLDGEYVQNIGFWMDVKCFVGTIWSVLRSDGVVEGGTGSAKKEIASTKRREGHHHHHH | soluble |
| MSLKTALDIIEHAEEHLIEKIAENMHTFGMPSTVGRVLGIIYMNRKPMTLSELSEATGMSKTRMSQVVREMIDANIAEKVFEKGVRKDLYDVEQDYYQTFISLFAANWTKVVSKNKVLYKKLNRELSDLLQRDGLTPEAEEKVNQLLNELKEWLHYYDWLSRLIEFFESEEVFRYVPKTKECSSLKEGGSHHHHHH | soluble |
| MTKKVVVHQIVGHRFLGVNEQGDKVMIDGDQPSTGPRPMELLLMALGACTAYDVVDIMRKKKQPLARYRVEVEGERAETHPRRYTRITVTHIASGPGVTLEALERAVHLSHTKYCSVSATLNAEITTRVVLEPWEGEEGEG | soluble |
| PSGTIVGLYTHTDFAKKLSVDIELNYISMGSLFTMNKDTPEQRDYKVSLGYISLPVNLNYCVYKHIHVQVGIQTLALLTAVTEQKYQNVVTKGKNINDFHAIDAGPTIGCYYQFEKGLQLGVRYYRGIQNVVKENMVLYNTGIQFLLTYQF | not soluble |
